B1: AAA+ ATPase RavA (enzyme)
chain: not shown
notes: RavA of Escherichia coli, MoxR family AAA+ ATPase; crystal structure pdb 3NBX; The purification is told for the RavA mutants ('as previously described', El Bakkouri et al., 2010); also called MoxR AAA+ ATPase RavA; source: E. coli BL21-(DE3) Gold pLysS, from p11 plasmid, purified (Ni-NTA, TEV, MonoS, Superdex S200); not shown: 6xHis-tag, N-terminal, cleaved
B2: inducible lysine decarboxylase LdcI (enzyme, Escherichia coli)
chain: MNVIAILNHMGVYFKEEPIRELHRALERLNFQIVYPNDRDDLLKLIENNARLCGVIFDWDKYNLELCEEISKMNENLPLYAFANTYSTLDVSLNDLRLQISFFEYALGAAEDIANKIKQTTDEYINTILPPLTKALFKYVREGKYTFCTPGHMGGTAFQKSPVGSLFYDFFGPNTMKSDISISVSELGSLLDHSGPHKEAEQYIARVFNADRSYMVTNGTSTANKIVGMYSAPAGSTILIDRNCHKSLTHLMMMSDVTPIYFRPTRNAYGILGGIPQSEFQHATIAKRVKETPNATWPVHAVITNSTYDGLLYNTDFIKKTLDVKSIHFDSAWVPYTNFSPIYEGKCGMSGGRVEGKVIYETQSTHKLLAAFSQASMIHVKGDVNEETFNEAYMMHTTTSPHYGIVASTETAAAMMKGNAGKRLINGSIERAIKFRKEIKRLRTESDGWFFDVWQPDHIDTTECWPLRSDSTWHGFKNIDNEHMYLDPIKVTLLTPGMEKDGTMSDFGIPASIVAKYLDEHGIVVEKTGPYNLLFLFSIGIDKTKALSLLRALTDFKRAFDLNLRVKNMLPSLYREDPEFYENMRIQELAQNIHKLIVHHNLPDLMYRAFEVLPTMVMTPYAAFQKELHGMTEEVYLDEMVGRINANMILPYPPGVPLVMPGEMITEESRPVLEFLQMLCEIGAHYPGFETDIHGAYRQADGRYTVKVLKEESKK
notes: Inducible lysine decarboxylase LdcI of Escherichia coli; decamer of two pentameric rings; crystal structure pdb 3N75; also called acid stress-inducible lysine decarboxylase; source: E. coli CF1693 bearing pT7-322-Tetr, from pET22b, purified (Ni-NTA, MonoQ, Superdex S200); not shown: 24 amino acid linker containing 6xHis-tag, C-terminal, kept; copies: 10

Key:
[1] = target: B2; assay: cryo-EM structure; LdcI–RavA complex, 11 Å; 1.26 mg/ml LdcI mixed with 0.94 mg/ml RavA, 15 min at room temperature, 25 mM Mes pH 6.5, 200 mM NaCl, 3 mM ADP, 0.8 mM PLP, 1 mM DTT; no cross-linking; D5 symmetry imposed; conditions: both partners purified
[2] = target: the molecule itself; assay: as above
[3] = target: the molecule itself; assay: cryo-EM structure; LdcI-LARA complex, 7.5 Å; 7.3 µM LdcI with 73 µM LARA (1:10), 15 min at room temperature, 50 mM Mes pH 6.5, 100 mM NaCl, 0.2 mM PLP, 1 mM DTT, 0.01% glutaraldehyde; D5 symmetry imposed

Row | Binder | stoichiometry N [1] | stoichiometry N [2] | stoichiometry N [3]
1 | B1 | 1.5 RavA monomers per LdcI monomer | 6 | 
2 | B2 |  |  | 10
